Article PMC7826288, “Dynamics of TRF1 organizing a single human telomere” (Nucleic Acids Research, 2020)

Tests used:
[1] = target: T1, TRF1 (human, UniProt P54274); assay: single-molecule magnetic tweezers; settings: delta-delta G of fork opening with vs without 10 nM TRF1 (61 vs 50 kBT); 20 mM HEPES pH 7.5, 100 mM NaCl, 1 mM EDTA, 0.0063% Tween-20; EMSA 30 min on ice, 5% PAGE in 1x TBE at 4 C; magnetic tweezers at 23 C
[2] = target: T1, TRF1; assay: EMSA; dimer concentration; Hill fit; 10 nM DNA, n=3; 20 mM HEPES pH 7.5, 100 mM NaCl, 1 mM EDTA, 0.0063% Tween-20; EMSA 30 min on ice, 5% PAGE in 1x TBE at 4 C; magnetic tweezers at 23 C; settings: protein: recombinant; tags: trx tag (modified pET32a, Ni-NTA) removed with 3C protease; chain copies: 2; label: FAM on strand 2 (printed as FAM-CTAACCC..., 5'); blunt

T1 sequence (P54274 3-439): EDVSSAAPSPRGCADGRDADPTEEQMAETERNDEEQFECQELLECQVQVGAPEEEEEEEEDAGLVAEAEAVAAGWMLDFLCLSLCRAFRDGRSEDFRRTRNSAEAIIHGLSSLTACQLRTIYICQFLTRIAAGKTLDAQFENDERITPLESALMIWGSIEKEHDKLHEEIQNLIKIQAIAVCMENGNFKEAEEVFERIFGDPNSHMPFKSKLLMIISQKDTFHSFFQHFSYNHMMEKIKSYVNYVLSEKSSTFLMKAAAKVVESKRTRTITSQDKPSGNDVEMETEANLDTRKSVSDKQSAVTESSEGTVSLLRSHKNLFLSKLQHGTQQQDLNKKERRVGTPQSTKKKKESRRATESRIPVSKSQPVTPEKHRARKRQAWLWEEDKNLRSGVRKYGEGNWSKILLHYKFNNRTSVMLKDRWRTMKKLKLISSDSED

Molecule	binding signal [1] [kBT]	Kd [2] [nM]
short telomeric hairpin (13 TTAGGG repeats)	11	
telomeric dsDNA (two TTAGGG sites) (dsDNA) DNA 1: GTTAGGGTTAGGGTTAG DNA 2: CTAACCCTAACCCTAAC		17.5 ± 0.7
